Measured values published in article PMC10784468 (Nature Communications, 2024).
Where “and” joins values, the source holds several entries; their conditions need not be identical. Identical values can stand only once. Like-named read-outs stand apart in the source and are kept apart here. Positions of bridges follow the written chain, without caps; N, C: chain ends. Residues, ends and D or L forms follow the SMILES beside them. *: point of attachment. X1 = O=C(O)c1ccc(-c2c3nc(c(-c4ccc(C(=O)O)cc4)c4ccc([nH]4)c(-c4ccc(C(=O)*)cc4)c4nc(c(-c5ccc(C(=O)O)cc5)c5ccc2[nH]5)C=C4)C=C3)cc1; X2 = O=C(O)C/C(=C/C(=O)*)C(=O)O

Assays:
EJ cells [1] = experiment: Intracellular ROS detection (DCFH-DA); type: cell-based; details: pH 6.5, 40 μM, 8 h
Procedure: Initially, EJ cells (5 × 10^5) were cultured in confocal dish with a CO2 incubator overnight at 37 °C. […] Afterwards, EJ cells were washed with PBS for 3 times and replaced with culture mediums.

[2] = for Plasma Drug concentration: fluorescence; for Tumor Drug concentration: tumor lysate fluorescence
Procedure: Moreover, ex vivo fluorescence imaging of tumor and major organs was performed to investigate the dose-dependent tumor accumulation of Gi-F-CAA (Fig. 3e and Supplementary Fig. 25). […] Subsequently, time-dependent in vivo fluorescence imaging of EJ xenograft mice was conducted to investigate the in vivo biodistribution and metabolism of Gi-F-CAA after administrated with Gi-F-CAA (8 mg/kg in 100 μL PBS). […] Representative time-dependent fluorescence images of tumor tissue lysates and plasma were acquired after intravenous administration with Gi-F-CAA (8 mg/kg in 100 μL PBS) (Fig. 3h).
Firstly, A density of 5 × 10^6 EJ cell resuspended in Matrigel were subcutaneously injected into the right hind of mice to construct EJ xenograft model. When the tumor volume reached about 200–400 mm^3, the mice were administrated with Cy labeled Gi-F (8 mg/kg in 100 μL PBS), Cy labeled Gi-F-SA (8 mg/kg in 100 μL PBS) and Cy labeled Gi-F-CAA (8 mg/kg in 100 μL PBS) by intravenous injection for in vivo fluorescence imaging at different timepoints (10 min, 20 min, 40 min, 1 h, 2 h, 4 h, 8 h, 12 h and 24 h) with in vivo imaging system (IVIS). Meanwhile, the EJ xenograft mice were sacrificed for collecting major organs and tumors to evaluate the biodistribution of Gi-F-CAA.

EJ cells [3] = experiment: Intracellular LPO fluorescence imaging (C11-BODIPY); type: cell-based; details: pH 6.5, 40 μM, 8 h
Procedure: Initially, EJ cells (5 × 10^5) were cultured in confocal dish with a CO2 incubator overnight at 37 °C. […] Next, EJ cells were collected and washed with PBS for 3 times.

[4] = EJ xenograft mice, i.v. 8 mg/kg, 0.017 h, mice 1
[5] = EJ xenograft mice, i.v. 8 mg/kg, 0.017 h, mice 2
[6] = EJ xenograft mice, i.v. 8 mg/kg, 0.017 h, mice 3
[7] = EJ xenograft mice, i.v. 8 mg/kg, 0.083 h, mice 1
[8] = EJ xenograft mice, i.v. 8 mg/kg, 0.083 h, mice 2
[9] = EJ xenograft mice, i.v. 8 mg/kg, 0.083 h, mice 3
[10] = EJ xenograft mice, i.v. 8 mg/kg, 0.167 h, mice 1
[11] = EJ xenograft mice, i.v. 8 mg/kg, 0.167 h, mice 2
[12] = EJ xenograft mice, i.v. 8 mg/kg, 0.167 h, mice 3
[13] = EJ xenograft mice, i.v. 8 mg/kg, 0.25 h, mice 1
[14] = EJ xenograft mice, i.v. 8 mg/kg, 0.25 h, mice 2
[15] = EJ xenograft mice, i.v. 8 mg/kg, 0.25 h, mice 3
[16] = EJ xenograft mice, i.v. 8 mg/kg, 0.5 h, mice 1
[17] = EJ xenograft mice, i.v. 8 mg/kg, 0.5 h, mice 2
[18] = EJ xenograft mice, i.v. 8 mg/kg, 0.5 h, mice 3
[19] = EJ xenograft mice, i.v. 8 mg/kg, 0.75 h, mice 1
[20] = EJ xenograft mice, i.v. 8 mg/kg, 0.75 h, mice 2
[21] = EJ xenograft mice, i.v. 8 mg/kg, 0.75 h, mice 3
[22] = EJ xenograft mice, i.v. 8 mg/kg, 1 h, mice 1
[23] = EJ xenograft mice, i.v. 8 mg/kg, 1 h, mice 2
[24] = EJ xenograft mice, i.v. 8 mg/kg, 1 h, mice 3
[25] = EJ xenograft mice, i.v. 8 mg/kg, 2 h, mice 1
[26] = EJ xenograft mice, i.v. 8 mg/kg, 2 h, mice 2
[27] = EJ xenograft mice, i.v. 8 mg/kg, 2 h, mice 3
[28] = EJ xenograft mice, i.v. 8 mg/kg, 4 h, mice 1
[29] = EJ xenograft mice, i.v. 8 mg/kg, 4 h, mice 2
[30] = EJ xenograft mice, i.v. 8 mg/kg, 4 h, mice 3
[31] = EJ xenograft mice, i.v. 8 mg/kg, 8 h, mice 1
[32] = EJ xenograft mice, i.v. 8 mg/kg, 8 h, mice 2
[33] = EJ xenograft mice, i.v. 8 mg/kg, 8 h, mice 3
[34] = EJ xenograft mice, i.v. 8 mg/kg, 12 h, mice 1
[35] = EJ xenograft mice, i.v. 8 mg/kg, 12 h, mice 2
[36] = EJ xenograft mice, i.v. 8 mg/kg, 12 h, mice 3
[37] = EJ xenograft mice, i.v. 8 mg/kg, 24 h, mice 1
[38] = EJ xenograft mice, i.v. 8 mg/kg, 24 h, mice 2
[39] = EJ xenograft mice, i.v. 8 mg/kg, 24 h, mice 3

CC(C)C[C@H](NC(=O)c1ccc(-c2c3nc(c(-c4ccc(C(=O)O)cc4)c4ccc([nH]4)c(-c4ccc(C(=O)O)cc4)c4nc(c(-c5ccc(C(=O)O)cc5)c5ccc2[nH]5)C=C4)C=C3)cc1)C(=O)N[C@@H](CCCCNC(=O)/C=C(/CC(=O)O)C(=O)O)C(=O)N[C@@H](CC(C)C)C(=O)N[C@@H](CCCCN)C(=O)N[C@@H](CC(C)C)C(=O)N[C@@H](CCCCNC(=O)/C=C(/CC(=O)O)C(=O)O)C(=O)NCC(=O)N[C@@H](C)C(=O)N[C@H]1CSSC[C@@H](C(=O)N2CCC[C@H]2C(=O)N[C@H](C(=O)O)C(C)C)NC(=O)[C@@H]2CCCN2C(=O)[C@H](Cc2ccc(O)cc2)NC(=O)[C@H](CC(C)C)NC(=O)[C@@H]2CCCN2C(=O)[C@H](CC(C)C)NC(=O)[C@H](Cc2c[nH]c3ccccc23)NC(=O)[C@H](CC(N)=O)NC1=O [Gi-F-CAA] (X1-LK(X2)LKLK(X2)GACNWLPLYPCPV-OH; disulfide 9-17; C-terminus assumed)
intracellular ROS (DCFH-DA) (EJ cells [1]): Apparent green fluorescence
blood circulation half-life (t1/2) ([2]; EJ xenograft mice, i.v. 8 mg/kg in 100 μL PBS, plasma fluorescence, n = 3 mice): 1.03 ± 0.192 h
Plasma Drug concentration [2, 4]: 33.86 µM
Plasma Drug concentration [2, 5]: 27.32 µM
Plasma Drug concentration [2, 6]: 28.25 µM
Plasma Drug concentration [2, 7]: 31.76 µM
Plasma Drug concentration [2, 8]: 25.29 µM
Plasma Drug concentration [2, 9]: 26.44 µM
Plasma Drug concentration [2, 10]: 24.34 µM
Plasma Drug concentration [2, 11]: 19.45 µM
Plasma Drug concentration [2, 12]: 20.15 µM
Plasma Drug concentration [2, 13]: 19.65 µM
Plasma Drug concentration [2, 14]: 15.52 µM
Plasma Drug concentration [2, 15]: 16.27 µM
Plasma Drug concentration [2, 16]: 15.69 µM
Plasma Drug concentration [2, 17]: 12.64 µM
Plasma Drug concentration [2, 18]: 13.24 µM
Plasma Drug concentration [2, 19]: 14.64 µM
Plasma Drug concentration [2, 20]: 11.89 µM
Plasma Drug concentration [2, 21]: 12.38 µM
Plasma Drug concentration [2, 22]: 13.02 µM
Plasma Drug concentration [2, 23]: 10.61 µM
Plasma Drug concentration [2, 24]: 11.06 µM
Plasma Drug concentration [2, 25]: 7.79 µM
Plasma Drug concentration [2, 26]: 8.53 µM
Plasma Drug concentration [2, 27]: 9.07 µM
Plasma Drug concentration [2, 28]: 6.64 µM
Plasma Drug concentration [2, 29]: 6.59 µM
Plasma Drug concentration [2, 30]: 6.96 µM
Plasma Drug concentration [2, 31]: 3.65 µM
Plasma Drug concentration [2, 32]: 4.12 µM
Plasma Drug concentration [2, 33]: 4.41 µM
Plasma Drug concentration [2, 34]: 2.66 µM
Plasma Drug concentration [2, 35]: 3.28 µM
Plasma Drug concentration [2, 36]: 3.5 µM
Plasma Drug concentration [2, 37]: 1.38 µM
Plasma Drug concentration [2, 38]: 1.99 µM
Plasma Drug concentration [2, 39]: 2.17 µM
Tumor Drug concentration [2, 4]: 11.93 µM
Tumor Drug concentration [2, 5]: 13.59 µM
Tumor Drug concentration [2, 6]: 9.61 µM
Tumor Drug concentration [2, 7]: 13.61 µM
Tumor Drug concentration [2, 8]: 15.1 µM
Tumor Drug concentration [2, 9]: 10.98 µM
Tumor Drug concentration [2, 10]: 14.15 µM
Tumor Drug concentration [2, 11]: 15.1 µM
Tumor Drug concentration [2, 12]: 11.74 µM
Tumor Drug concentration [2, 13]: 15.43 µM
Tumor Drug concentration [2, 14]: 16.04 µM
Tumor Drug concentration [2, 15]: 12.46 µM
Tumor Drug concentration [2, 16]: 17.54 µM
Tumor Drug concentration [2, 17]: 16.74 µM
Tumor Drug concentration [2, 18]: 14.43 µM
Tumor Drug concentration [2, 19]: 16.03 µM
Tumor Drug concentration [2, 20]: 16.19 µM
Tumor Drug concentration [2, 21]: 13.02 µM
Tumor Drug concentration [2, 22]: 14.49 µM
Tumor Drug concentration [2, 23]: 15.3 µM
Tumor Drug concentration [2, 24]: 11.94 µM
Tumor Drug concentration [2, 25]: 12.9 µM
Tumor Drug concentration [2, 26]: 13.97 µM
Tumor Drug concentration [2, 27]: 10.6 µM
Tumor Drug concentration [2, 28]: 10.23 µM
Tumor Drug concentration [2, 29]: 11.8 µM
Tumor Drug concentration [2, 30]: 8.38 µM
Tumor Drug concentration [2, 31]: 7.25 µM
Tumor Drug concentration [2, 32]: 8.28 µM
Tumor Drug concentration [2, 33]: 6.04 µM
Tumor Drug concentration [2, 34]: 5.72 µM
Tumor Drug concentration [2, 35]: 6.55 µM
Tumor Drug concentration [2, 36]: 4.61 µM
Tumor Drug concentration [2, 37]: 4.93 µM
Tumor Drug concentration [2, 38]: 5.65 µM
Tumor Drug concentration [2, 39]: 3.95 µM
tumor tissue lysate signal relative to plasma ([2]; i.v. 8 mg/kg, from 1 h to 24 h): about 3 fold
level at time molar ([2]; mouse, in vivo, iv, 8 mg/kg): 16.2 µM
intracellular LPO (BODIPY 581/591 C11) (EJ cells [3]): extensive accumulation of LPO
DLS size distribution, Number (%): 0.000191% and 14% and 7.4%
